# Residue numbers refer to the chain shown, from its start. In names and notes the source's numbering stands.
# T1: full length human MSR1 with a C-terminal Myc tag, on HEK293.Myc.hMSR1 cells (human, UniProt P21757 1-451)
# T1 sequence (looked up): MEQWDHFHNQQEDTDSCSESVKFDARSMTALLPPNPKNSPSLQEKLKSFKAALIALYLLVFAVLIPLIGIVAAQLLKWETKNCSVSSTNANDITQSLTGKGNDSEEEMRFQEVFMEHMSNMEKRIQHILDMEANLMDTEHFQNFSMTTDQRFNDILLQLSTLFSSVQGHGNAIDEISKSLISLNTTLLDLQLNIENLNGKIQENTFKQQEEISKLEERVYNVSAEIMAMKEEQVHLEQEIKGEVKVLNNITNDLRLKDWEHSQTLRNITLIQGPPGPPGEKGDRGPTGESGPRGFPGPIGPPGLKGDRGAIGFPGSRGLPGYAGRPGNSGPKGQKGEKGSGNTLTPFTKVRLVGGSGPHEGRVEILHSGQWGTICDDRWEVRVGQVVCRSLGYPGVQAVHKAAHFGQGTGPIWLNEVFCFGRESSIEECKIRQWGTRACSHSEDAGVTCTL
# T2: mouse MSR1 on RAW264.7 cells (mouse, UniProt P30204 1-458)
# T2 construct: whole, on cells; also called MSR1 positive RAW264.7 cells
# T2 sequence (looked up): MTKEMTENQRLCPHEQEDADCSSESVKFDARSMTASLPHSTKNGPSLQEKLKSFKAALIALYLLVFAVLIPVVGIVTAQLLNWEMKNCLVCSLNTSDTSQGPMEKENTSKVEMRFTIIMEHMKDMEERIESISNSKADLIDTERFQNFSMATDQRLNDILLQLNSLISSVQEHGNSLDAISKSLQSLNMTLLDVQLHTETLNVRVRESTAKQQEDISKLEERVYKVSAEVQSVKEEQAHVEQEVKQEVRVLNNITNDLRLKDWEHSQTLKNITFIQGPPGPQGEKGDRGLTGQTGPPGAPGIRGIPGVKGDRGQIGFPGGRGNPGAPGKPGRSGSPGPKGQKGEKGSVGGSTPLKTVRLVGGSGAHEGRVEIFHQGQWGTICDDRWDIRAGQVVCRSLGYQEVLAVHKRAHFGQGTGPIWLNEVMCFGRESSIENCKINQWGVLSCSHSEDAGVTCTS
# T3: full length monkey MSR1 on HEK293.mfMSR1 cells (Macaca fascicularis, UniProt A0A2K5UWE2 1-451)
# T3 construct: whole, on cells
# T3 sequence: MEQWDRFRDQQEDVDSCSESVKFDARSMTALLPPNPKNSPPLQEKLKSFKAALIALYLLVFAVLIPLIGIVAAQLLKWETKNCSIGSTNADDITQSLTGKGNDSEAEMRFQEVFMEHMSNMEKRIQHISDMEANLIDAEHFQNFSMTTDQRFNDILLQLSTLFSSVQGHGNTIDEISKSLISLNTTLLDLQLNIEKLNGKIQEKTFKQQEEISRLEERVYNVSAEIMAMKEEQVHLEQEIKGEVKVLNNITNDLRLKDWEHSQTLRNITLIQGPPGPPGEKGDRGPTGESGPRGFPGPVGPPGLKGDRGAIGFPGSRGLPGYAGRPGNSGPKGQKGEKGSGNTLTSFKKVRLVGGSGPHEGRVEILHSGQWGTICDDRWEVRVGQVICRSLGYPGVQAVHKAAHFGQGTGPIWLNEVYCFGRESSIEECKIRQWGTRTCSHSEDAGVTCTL
# T4: mouse MSR1 extracellular domain expressed with a N-terminal nonahistidine tag (His9-mMSR1); R&D Systems, Cat … (mouse, UniProt P30204 79-458)
# T4 construct: extracellular domain; not shown: N-terminal nonahistidine tag
# T4 sequence (looked up): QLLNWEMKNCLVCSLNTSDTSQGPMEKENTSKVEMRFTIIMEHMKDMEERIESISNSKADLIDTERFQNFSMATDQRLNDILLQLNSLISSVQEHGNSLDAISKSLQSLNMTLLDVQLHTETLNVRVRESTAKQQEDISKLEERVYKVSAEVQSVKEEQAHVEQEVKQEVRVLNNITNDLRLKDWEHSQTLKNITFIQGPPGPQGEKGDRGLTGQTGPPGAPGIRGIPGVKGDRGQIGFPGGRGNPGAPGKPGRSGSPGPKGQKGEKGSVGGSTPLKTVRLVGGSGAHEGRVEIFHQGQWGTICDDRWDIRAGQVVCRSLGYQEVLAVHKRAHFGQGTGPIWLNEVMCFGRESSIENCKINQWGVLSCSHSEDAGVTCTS
# T5: human MSR1 extracellular domain expressed with a N-terminal nonahistidine tag (His9-hMSR1); R&D Systems, Cat … (human, UniProt P21757 77-451)
# T5 construct: extracellular domain; also called His-hMSR1; 9xHis-hMSR1; not shown: N-terminal nonahistidine tag
# T5 sequence (looked up): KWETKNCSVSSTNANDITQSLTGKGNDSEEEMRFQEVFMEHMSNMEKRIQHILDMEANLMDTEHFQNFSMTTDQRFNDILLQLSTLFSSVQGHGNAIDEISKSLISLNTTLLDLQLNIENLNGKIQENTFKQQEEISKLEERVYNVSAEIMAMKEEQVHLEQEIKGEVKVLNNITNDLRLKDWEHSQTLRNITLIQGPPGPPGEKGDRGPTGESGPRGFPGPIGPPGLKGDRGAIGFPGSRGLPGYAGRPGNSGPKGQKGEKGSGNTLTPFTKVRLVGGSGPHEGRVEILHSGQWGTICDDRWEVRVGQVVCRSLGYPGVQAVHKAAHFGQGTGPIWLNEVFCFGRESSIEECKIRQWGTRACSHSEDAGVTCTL
# T6: monkey MSR1 extracellular domain expressed with a N-terminal hexahistidine-myc-myc tag (HMM-mfMSR1) (monkey (Macaca fascicularis))
# T6 chain: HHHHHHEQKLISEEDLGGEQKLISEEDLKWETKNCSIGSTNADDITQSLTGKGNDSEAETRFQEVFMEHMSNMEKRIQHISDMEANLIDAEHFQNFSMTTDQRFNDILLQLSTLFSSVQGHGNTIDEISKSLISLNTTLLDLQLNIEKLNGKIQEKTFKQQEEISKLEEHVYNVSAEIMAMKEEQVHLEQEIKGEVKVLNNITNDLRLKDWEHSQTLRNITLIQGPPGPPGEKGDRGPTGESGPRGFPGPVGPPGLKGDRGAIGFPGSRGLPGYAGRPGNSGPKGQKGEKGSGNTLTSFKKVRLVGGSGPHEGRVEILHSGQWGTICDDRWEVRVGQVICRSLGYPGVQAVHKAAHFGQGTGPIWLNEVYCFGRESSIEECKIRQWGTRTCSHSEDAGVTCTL
# B1: H1H27731P-N297Q (antibody, V domains shown)
# VH: QLQLQESGPGLVKPSETLSLTCTVSGGSISRISYYWGWIRQPPGKGLEWIGSIYDSGSTYYNPSLKSRVTISIDTSKNQFSLKLSSVTAADTAVYYCVRYSSSSAFAFDYWGQGTLVTVSS
# VL: DIQMTQSPSSVSASVGDRVTITCRASQGISSWLAWYQQKPGKAPKLLIYAASSLQSGVPSRFSGSGSGTDFTLTISSLQPEDFATYYCQQANSFPFTFGPGTKVDIKR
# notes: human IgG1 Fc with N297Q
# B2: H1H27734P-N297Q (antibody, human IgG1, V domains shown)
# VH: EVQLVESRGGLVQPGGSLRLSCAASGFTFSSYAMSWVRQAPGKGLEWVSAISGSGGSTFYADSVKGRFTISRDNSKNTVYLQMNSLRAEDTAVYYCAKALVLRFLEWLGDYWGQGTLVTVSS
# VL: DIQMTQSPSTLSASVGDRVTITCRASQSISSWLAWFQQKPGKAPKLLIYKASSLESGVPSRFSGSGSGTEFTLTISSLQPDDFATYYCQQYKSYWTFGQGTKVEIKR
# notes: human IgG1 Fc with N297Q
# B3: H2aM25695N (antibody, V domains shown)
# VH: QVQLQESGPGLVKPSETLSLTCTVTGGSISRNYWSWIRQPPGKGLEWIGYIYYSGSINYNPSLKSRVTISVDMSKNQFSLKLNSVTAADTAVYYCARDRWNWKYGMDVWGQGTTVIVSS
# VL: EIVLTQSPGTLSLSPGERATLSCRASQTVRNSYLAWYHQKPGQAPRLLIYGASSRATGIPDRFSGSGSGTDFTLTISRLEPEDFAVYYCQQYGSSYWTFGQGTKMEIKR
# notes: Human variable domains with mouse IgG2a Fc; tied by the numerical identifier
# B4: H1H27732P-N297Q (antibody, V domains shown)
# VH: QLQLQESGPGLVKPSETLSLTCTVSGGSISSSTYYWGWIRQPPGKGLEWIGSFYYSGSTYYNPSLKSRVTISVGTSKNQFSLKLSSVTAADTAVYFCARGGLLGRPFVIWGQGTMVTVSS
# VL: DIQMTQSPSSLSASVGDRVTITCRASQGIRNDLGWYQQKPGKAPKRLIYAASSLQSGVPSRFSGSGSGTEFTLTISSLQPEDFATYYCLQHNSYPLTFGGGTKVEIKR
# notes: Human IgG1 Fc with N297Q point mutation
# B5: H1H27754P-N297Q (antibody, V domains shown)
# VH: EVQLVESGGGLVQPGGSLRLSCAASGFTFRTYAMTWVRQAPGKGLDWVSAITGDGGNTYYADSVKGRFTISRDNSKNTLYLQMNSLRAEDTAIYYCAKDQRFSFALYYFDYWGQGTLVTVSS
# VL: B1 VL with K42N, S52F, S93N, F96W, P100Q, D105E
# notes: as for B4
# B6: H2aM21228N (antibody, V domains shown)
# VH: VQLVESGGGLVQPGGSLRLSCAASGFTFSDHYMDWVRQAPGKGLEWVGRTRNKANSHTTEYAASVSGRFTISRDDSKNSLYLQMNSLKTEDTAVYYCTRAGIIGTLFDYWGQGTLVTVSS
# VL: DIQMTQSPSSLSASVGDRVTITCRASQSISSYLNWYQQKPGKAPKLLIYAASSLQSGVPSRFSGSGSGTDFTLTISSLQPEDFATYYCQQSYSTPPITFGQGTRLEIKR
# notes: as for B3
# Tests used:
# [1] = biological target: T1, full length human MSR1 with a …; test: cell-based or functional assay
# [2] = biological target: T2, mouse MSR1 on RAW264.7 cells; test: flow cytometry, RAW264.7 cells
# Experimental: To block binding to Fc receptors, RAW264.7 cells were incubated for 30 minutes at 4° C. with 500 pg/mL mouse IgG (Jackson ImmunoResearch, Cat #015-000-003) diluted in staining buffer, while B16F10.9 cells remained in staining buffer. […] The signal to noise (S/N) was determined by calculating the ratio of the anti-MSR1 antibodies or the control antibodies MFI to the unstained sample MFI (Table 11).
# [3] = biological target: T1, full length human MSR1 with a …; test: ECL cell binding, HEK293.Myc.hMSR1 cells, 11 nM
# [4] = biological target: T3, full length monkey MSR1 on …; test: ECL cell binding, HEK293.mfMSR1 cells, 11 nM
# Experimental: All cells were washed once with 1×PBS with Ca²⁺/Mg²⁺ and counted with a Cellometer™ Auto T4 cell counter (Nexcelom Bioscience). Approximately 1.0×10⁴ cells were seeded separately onto 96-well carbon electrode plates [MULTI-ARRAY high bind plate, Meso Scale Diagnostics] and incubated for 1 hour at 37° C. Non-specific binding sites were then blocked by 2% BSA (w/v) in PBS with Ca²⁺/Mg²⁺ for 1 hour at room temperature. THP-1 cells were pre-incubated for 0.5 hours at room temperature in sample dilution buffer with: 1) 1 mg/mL Fc receptor block reagents to block Fc gamma receptors on THP-1 cell surface [whole molecule human IgG (Jackson Immunoresearch, Cat #009-000-003) for wells being tested with anti-MSR1-mFc antibodies or 2) whole molecule mlgG (Jackson Immunoresearch, Cat #015-000-003) for wells being tested with anti-MSR1-hFc antibodies. Antibody binding on HEK293.Myc.hMSR1, HEK293.mfMSR1 and HEK293 cells was tested without Fc receptor block reagents. […] Plates were then washed to remove unbound antibodies an AquaMax2000 plate washer with a cell washing head (MDS Analytical Technologies). […] Plates were washed and developed with Read Buffer (Meso Scale Diagnostics, Cat # R92TD-2) according to manufacturer's recommended procedure and luminescent signals were recorded with a SECTOR Imager 600 (Meso Scale Diagnostics). Luminescence intensity, measured in relative light units (RLU), was recorded to indicate the binding intensity of each antibody at the range of concentrations.
# [5] = biological target: T4, mouse MSR1 extracellular domain …; test: BLI Octet, 25 C, antibody captured
# [6] = biological target: T5, human MSR1 extracellular domain …; test: BLI Octet, 25 C, antibody captured
# Experimental: (§1) Binding affinities and kinetic constants of human anti-MSR1 antibodies for different MSR1 reagents were determined using a real time, label-free bio-layer interferometry assay on an OCTET® HTX biosensor platform (Pall FortéBio Corp., Menlo Park, Calif.). The experiment was performed at 25° C. in 10 mM HEPES, 150 mM NaCl, 3 mM EDTA, 0.05% v/v Surfactant Tween-20, and 1 mg/mL BSA, pH7.4 (HBS-EBT) buffer with the plate shaking at the speed of 1000 rpm. […] The anti-MSR1 monoclonal antibodies were captured by dipping either anti-human Fc (AHC) or anti-mouse Fc (AMC) Octet biosensors in wells containing 5 pg/mL or 10 pg/mL of anti-MSR1 monoclonal antibody for 45-90 seconds. […] The binding of different MSR1 reagents to the captured anti-MSR1 monoclonal antibody was measured for 4 minutes and the dissociation of monoclonal antibody bound MSR1 reagent was monitored for 8-10 minutes in HBS-EBT buffer.
# (§2) The association rate (kₐ) and dissociation rate (kd) were determined by fitting the real-time binding sensorgrams to a 1:1 binding model with mass transport limitation using Scrubber 2.0c curve-fitting software. Binding dissociation equilibrium constant (KD) and dissociative half-life (t½) were calculated from the kinetic rates as:
# [7] = biological target: T6, monkey MSR1 extracellular domain …; test: BLI Octet, 25 C, antibody captured
# Experimental: as §1, §2
# [8] = biological target: T5, human MSR1 extracellular domain …; test: SPR Biacore, 37 C, antibody captured
# [9] = biological target: T6, monkey MSR1 extracellular domain …; test: SPR Biacore, 37 C, antibody captured
# [10] = biological target: T5, human MSR1 extracellular domain …; test: SPR Biacore, 25 C, antibody captured; kd fixed, no dissociation seen
# Experimental: (§3) Binding affinities and kinetic constants of human anti-MSR1 antibodies for different MSR1 reagents were determined by real-time surface plasmon resonance (Biacore 4000). All binding studies were performed in 10 mM HEPES, 150 mM NaCl, 3 mM EDTA, and 0.05% v/v Surfactant Tween-20, pH 7.4 (HBS-ET) running buffer at 25° C. and 37° C.
# as §2
# [11] = biological target: T6, monkey MSR1 extracellular domain …; test: SPR Biacore, 25 C, antibody captured;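 further: rates from 1:1 fit with mass transport limitation of real-time sensorgrams, HEPES-buffered saline with EDTA and Tween-20 at pH 7.4, KD and t½ derived from the kinetic rates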
# Experimental: as §3, §2
Binder,% Inhibition of Dil-Oxidized LDL uptake [1],IC50 of Dil-Oxidized LDL uptake inhibition [1],MFI [2],S/N (MFI over unstained MFI) [2],ratio of binding signal (RLU) to isotype control [3],ratio of binding signal (RLU) to isotype control [4],binding result [5],Kd [6],koff [6],kon [6],t½ [6],Kd [7],koff [7],kon [7],t½ [7],Kd [8],t½ [8],Kd [9],t½ [9],Kd [10],further results
B1,62%,> 10 nM,3510 MFI,1,48 fold,43 fold,,,,,,,,,,,,,,,% Inhibition of Dil-Acetylated LDL uptake [1]: 37%; IC50 of Dil-Acetylated LDL uptake inhibition [1]: 1.8 nM
B2,22%,5.5 nM,4780 MFI,1,40 fold,28 fold,,,,,,,,,,,,,,,
B3,,,,,,,no binding (tested: 100 nM),1.46 nM,0.000527 s⁻¹,360000 M⁻¹ s⁻¹,22 min,1.83 nM,0.000571 s⁻¹,312000 M⁻¹ s⁻¹,20 min,,,,,,
B4,,,,,,,no binding (tested: 50 nM),,,,,,,,,0.111 nM,370 min,0.317 nM,109 min,≤ 0.0801 nM,t½ [10]: 1160 min; Kd [11]: 0.248 nM; t½ [11]: 364 min
B5,,,,,,,no binding (tested: 50 nM),,,,,,,,,0.0381 nM,457 min,0.0504 nM,327 min,≤ 0.0344 nM,koff [8]: 2.53e-05 s⁻¹; kon [8]: 663000 M⁻¹ s⁻¹; koff [9]: 3.53e-05 s⁻¹; kon [9]: 701000 M⁻¹ s⁻¹; koff [10]: ≤ 1e-05 s⁻¹; kon [10]: 290000 M⁻¹ s⁻¹; t½ [10]: 1160 min; Kd [11]: 0.075 nM; koff [11]: 1.76e-05 s⁻¹; kon [11]: 235000 M⁻¹ s⁻¹; t½ [11]: 657 min
B6,,,,,,,no binding (tested: 100 nM),0.954 nM,0.000116 s⁻¹,122000 M⁻¹ s⁻¹,100 min,1.45 nM,0.000146 s⁻¹,100000 M⁻¹ s⁻¹,79 min,,,,,,

# Source: patent publication US20190367631A1 (Regeneron, published 2019)
